Patent US20190359693A1
Numbering of substitutions follows the chain as printed.

B1: SD3023 (VHH)
VHH: EVQLLESGGGLVQAGGSLRLSCAASGRTYAMSWFRQAPGKEREFVSHINALGTRTYYADSVKGRFTISRDNSKNTLYLQMNSLRPEDTAVYYCTAQGQWRAAPVAVAAEYEFWGQGTQVTVSS
B2: SD3025 (VHH)
VHH: B1 VHH with A14P, S46A, P85A
B3: SD3027 (VHH)
VHH: B1 VHH with H47A
B4: SD3028 (VHH)
VHH: B1 VHH with S46A
B5: SD3095 (VHH)
VHH: B1 VHH with A14P, S32G, S46A, Q118L
B6: SD3094 (VHH)
VHH: B1 VHH with A14P, S32G, S46A, P85A, Q118L
B7: SD3024 (VHH)
VHH: B1 VHH with A14P, P85A
B8: SD3026 (VHH)
VHH: B1 VHH with A14P, H47A, P85A
B9: SD3001 (VHH)
VHH: EVQLVESGGGLVQPGGSLRLSCAASGFTFSTSWMSWLRQAPGKGLEWVSVINTDGGTYYADSVKGRFTISRDNSKNTLYLQMNSLRAEDTAVYYCAKDWGGPEPTRGQGTQVTVSS
B10: SD3002 (VHH)
VHH: B9 VHH with S35Y
B11: SD3086 (VHH)
VHH: B9 VHH with S35Y, L37V, Q111L
B12: SD3004 (VHH)
VHH: B9 VHH with S35Y, N76D
B13: SD3003 (VHH)
VHH: B9 VHH with N76D
B14: SD3007 (VHH)
VHH: EVQLLESGGGLVQPGGSLRLSCAASGFTLENKAIGWFRQAPGKEREGVSCISKSGSWTYYADSVKGRFTISRDNSKNTVYLQMNSLRAEDTAVYYCATTTAGGGLCWDGTTFSRLASSWGQGTQVTVSS
B15: SD3088 (VHH)
VHH: B14 VHH with S49L, V79L, Q124L
B16: SD3011 (VHH)
VHH: B14 VHH with S49L
B17: SD3008 (VHH)
VHH: B14 VHH with A88P
B18: SD3012 (VHH)
VHH: B14 VHH with S49L, A88P
B19: SD3009 (VHH)
VHH: B14 VHH with I34M, G35S, S49L, V79L
B20: SD3010 (VHH)
VHH: B14 VHH with S49L, V79L
B21: SD3049 (VHH)
VHH: EVQLVESGGGLVQPGGSLRLSCAASGLSLDTYAMSWFRQAPGKEREGVSCISSGHGMTYYADSVKGRFTISRDNSKNTLYLQMNSLQPEDTARYYCATESRYYCSDNWPAPQRYIYWGQGTQVTVSS
B22: SD3076 (VHH)
VHH: B21 VHH with M34V, S35G, M57L, R72T, Q87R, P88A, R93V, Q122L
B23: SD3100 (VHH)
VHH: B21 VHH with A24I, M34V, S35G, M57A, R72T, Q87R, P88A, R93V, Q122L
B24: SD3075 (VHH)
VHH: B21 VHH with M34V, S35G, M57I, R72T, Q87R, P88A, R93V, Q122L
B25: SD3072 (VHH)
VHH: B21 VHH with M34V, S35G, V48I, S49T, I70V, R72T, Q87R, P88A, R93V, Q122L
B26: SD3073 (VHH)
VHH: B21 VHH with A24I, M34V, S35G, I70V, R72T, Q87R, P88A, R93V, Q122L
B27: SD3050 (VHH)
VHH: B21 VHH with V48I, S49T
B28: SD3056 (VHH)
VHH: B21 VHH with V48I, S49T, M57F
B29: SD3051 (VHH)
VHH: B21 VHH with M57I
B30: SD3053 (VHH)
VHH: B21 VHH with M57F
B31: SD3055 (VHH)
VHH: B21 VHH with V48I, S49T, M57L
B32: SD3103 (VHH)
VHH: B21 VHH with A24I, M34V, S35G, M57D, R72T, Q87R, P88A, R93V, Q122L
B33: SD3074 (VHH)
VHH: B21 VHH with A24I, M34V, S35G, V48I, S49T, R72T, Q87R, P88A, R93V, Q122L
B34: SD3052 (VHH)
VHH: B21 VHH with M57L
B35: SD3101 (VHH)
VHH: B21 VHH with A24I, M34V, S35G, M57S, R72T, Q87R, P88A, R93V, Q122L
B36: SD3104 (VHH)
VHH: B21 VHH with A24I, M34V, S35G, M57N, R72T, Q87R, P88A, R93V, Q122L
B37: SD3054 (VHH)
VHH: B21 VHH with V48I, S49T, M57I
B38: SD3102 (VHH)
VHH: B21 VHH with A24I, M34V, S35G, M57Q, R72T, Q87R, P88A, R93V, Q122L
B39: SD3041 (VHH)
VHH: EVQLVESGGGLVQPGGSLRLSCAASGRTLSIYSMSWFRQAPGKEREFVSAIGWNSGRTYYADSVKGRFTISRDNSKNTLYLQMNSLRAEDTAVYYCAAAKGPLRLSSQADYWGQGTQVTVSS
B40: SD3048 (VHH)
VHH: B39 VHH with P14A, A50T, S75A, K76R
B41: SD3046 (VHH)
VHH: B39 VHH with P14A, A50T
B42: SD3047 (VHH)
VHH: B39 VHH with P14A, S49A, A50T
B43: SD3042 (VHH)
VHH: B39 VHH with A50T
B44: SD3043 (VHH)
VHH: B39 VHH with S49A, A50T
B45: SD3044 (VHH)
VHH: B39 VHH with A50T, S75A, K76R
B46: SD3045 (VHH)
VHH: B39 VHH with P14A
B47: SD3069 (VHH)
VHH: EVQLVESGGGLVQPGGSLRLSCAISGLSLDTYAVGWFRQAPGKEREGITCISSGHGMTYYADSVKGRFTVSTDNSKNTLYLQMNSLRAEDTAVYYCATESRYYCSDNWPAPQRYIYWGQGTLVTVSS
B48: SD3070 (VHH)
VHH: B47 VHH with M57I
B49: SD3071 (VHH)
VHH: B47 VHH with M57L

What was measured:
Assay in all cases: cell-based or functional assay
[1] = biological target: hemagglutinin (HA) of influenza A/New York/107/03 (PR8) (influenza A virus A/New York/107/03 (PR8))
[2] = biological target: hemagglutinin (HA) of influenza A/Brisbane/10/07 (H3N2) (influenza A virus A/Brisbane/10/07 (H3N2))
[3] = biological target: hemagglutinin (HA) of influenza B/Harbin/7/94 (Yamagata) (influenza B virus)
[4] = biological target: hemagglutinin (HA) of influenza B/Lee/40 (Old) (influenza B virus) (UniProt P03460)
Sequence of hemagglutinin (HA) of influenza B/Lee/40 (Old) (influenza B virus) (P03460 16-584 limits assumed): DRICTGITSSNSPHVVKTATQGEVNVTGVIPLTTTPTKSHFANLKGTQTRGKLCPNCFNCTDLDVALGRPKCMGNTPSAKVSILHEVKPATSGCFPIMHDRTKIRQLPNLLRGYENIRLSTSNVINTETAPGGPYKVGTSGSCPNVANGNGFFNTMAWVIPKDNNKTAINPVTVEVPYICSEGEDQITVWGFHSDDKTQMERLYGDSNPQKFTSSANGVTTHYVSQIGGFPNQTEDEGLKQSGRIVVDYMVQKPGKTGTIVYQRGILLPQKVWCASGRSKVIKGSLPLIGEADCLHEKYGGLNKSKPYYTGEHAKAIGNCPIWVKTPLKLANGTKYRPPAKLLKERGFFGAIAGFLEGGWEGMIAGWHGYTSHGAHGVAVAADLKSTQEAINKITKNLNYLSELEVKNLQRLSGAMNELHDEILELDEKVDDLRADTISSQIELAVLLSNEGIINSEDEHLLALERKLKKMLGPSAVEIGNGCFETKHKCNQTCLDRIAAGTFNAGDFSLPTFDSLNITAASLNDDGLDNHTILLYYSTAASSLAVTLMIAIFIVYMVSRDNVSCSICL

Binder | VNA IC50 [1] | VNA IC50 [2] | VNA IC50 [3] | VNA IC50 [4]
B1 | 16 nM | 64 nM | – | –
B2 | 13 nM | 160 nM | – | –
B3 | 6 nM | 16 nM | – | –
B4 | 26 nM | 101 nM | – | –
B5 | 6 nM | 8 nM | – | –
B6 | 6 nM | 8 nM | – | –
B7 | 20 nM | 80 nM | – | –
B8 | 8 nM | 16 nM | – | –
B9 | – | – | > 1000 nM | > 1000 nM
B10 | – | – | 137 nM | > 1000 nM
B11 | – | – | – | > 1000 nM
B12 | – | – | 101 nM | > 1000 nM
B13 | – | – | > 1000 nM | > 1000 nM
B14 | – | – | > 1000 nM | > 1000 nM
B15 | – | – | – | 127 nM
B16 | – | – | 96 nM | 59 nM
B17 | – | – | > 1000 nM | > 1000 nM
B18 | – | – | 78 nM | 60 nM
B19 | – | – | 516 nM | 372 nM
B20 | – | – | 173 nM | 227 nM
B21 | – | – | > 1000 nM | –
B22 | – | – | > 1000 nM | > 1000 nM
B23 | – | – | > 1000 nM | > 1000 nM
B24 | – | – | > 1000 nM | > 1000 nM
B25 | – | – | > 1000 nM | 318 nM

Binder | VNA IC50 [1] | VNA IC50 [2] | VNA IC50 [3] | VNA IC50 [4]
B26 | – | – | > 1000 nM | 59 nM
B27 | – | – | > 1000 nM | –
B28 | – | – | > 1000 nM | –
B29 | – | – | > 1000 nM | –
B30 | – | – | > 1000 nM | –
B31 | – | – | > 1000 nM | –
B32 | – | – | > 1000 nM | > 1000 nM
B33 | – | – | > 1000 nM | 42 nM
B34 | – | – | > 1000 nM | –
B35 | – | – | > 1000 nM | > 1000 nM
B36 | – | – | > 1000 nM | > 1000 nM
B37 | – | – | > 1000 nM | –
B38 | – | – | > 1000 nM | > 1000 nM
B39 | > 1000 nM | – | – | –
B40 | 858 nM | – | – | –
B41 | > 1000 nM | – | – | –
B42 | > 1000 nM | – | – | –
B43 | > 1000 nM | – | – | –
B44 | > 1000 nM | – | – | –
B45 | > 1000 nM | – | – | –
B46 | > 1000 nM | – | – | –
B47 | – | – | > 1000 nM | 67 nM
B48 | – | – | > 1000 nM | > 1000 nM
B49 | – | – | > 1000 nM | > 1000 nM
